According to the Immune Epitope Database (IEDB):
pKd: −log10 of the molar value.

Experiments:
HLA-A*11:01 = assay: IEDB peptide-MHC binding, purified MHC/direct/fluorescence; filed as Kd, often an IC50 or EC50 that approximates it; ≥ and ≤ were set here for values at or beyond the usual limits of such assays
HLA-A*01:01 = assay: as above
HLA-A*31:01 = assay: as above
HLA-B*46:01 [1] = assay: as above
HLA-A*24:02 = assay: as above; conditions: source organism: Influenza A virus (A/Viet Nam/HN/2004(H5N1))
HLA-B*58:01 = assay: as above
HLA-A*02:01 [2] = assay: as above
HLA-B*40:01 = assay: as above
HLA-B*39:01 = assay: as above
HLA-B*15:01 [3] = assay: as above
HLA-A*03:01 [4] = assay: as above
HLA-B*27:05 = assay: as above
HLA-B*08:02 = assay: as above; conditions: source organism: Influenza A virus(A/swine/Shandong/fNY/2003(H9N2))
HLA-B*08:01 = assay: as above; conditions: source organism: Influenza A virus (A/Viet Nam/HN/2004(H5N1))
HLA-A*69:01 = assay: as above
HLA-B*07:02 = assay: as above
HLA-A*24:03 [5] = assay: IEDB peptide-MHC binding, purified MHC/competitive/fluorescence; filed as Kd, often an IC50 or EC50 that approximates it; ≥ and ≤ were set here for values at or beyond the usual limits of such assays
HLA-B*44:02 = assay: IEDB peptide-MHC binding, purified MHC/direct/fluorescence; filed as Kd, often an IC50 or EC50 that approximates it; ≥ and ≤ were set here for values at or beyond the usual limits of such assays
HLA-B*48:01 = assay: as above
HLA-B*18:01 [6] = assay: as above
HLA-B*57:01 [7] = assay: as above
HLA-A*29:02 [8] = assay: as above
HLA-A*02:11 = assay: IEDB peptide-MHC binding, purified MHC/competitive/fluorescence; filed as Kd, often an IC50 or EC50 that approximates it; ≥ and ≤ were set here for values at or beyond the usual limits of such assays
HLA-B*46:01 [9] = assay: as above
HLA-A*26:01 = assay: as above
HLA-A*02:01 [10] = assay: as above
HLA-B*18:01 [11] = assay: as above; conditions: source organism: Vibrio parahaemolyticus K5030
HLA-A*02:19 = assay: as above
HLA-B*51:01 = assay: as above
HLA-B*27:03 = assay: as above
HLA-A*03:01 [12] = assay: as above
HLA-B*57:01 [13] = assay: as above
HLA-A*29:02 [14] = assay: as above; conditions: source organism: Vibrio parahaemolyticus K5030
HLA-A*02:03 = assay: as above; conditions: source organism: Cryptosporidium parvum Iowa II
HLA-B*15:01 [15] = assay: as above; conditions: source organism: Cryptosporidium parvum Iowa II
HLA-B*15:17 = assay: as above
HLA-A*02:12 = assay: IEDB peptide-MHC binding, purified MHC/direct/fluorescence; filed as Kd, often an IC50 or EC50 that approximates it; ≥ and ≤ were set here for values at or beyond the usual limits of such assays; conditions: source organism: Maporal virus
HLA-A*68:02 = assay: as above; conditions: source organism: Maporal virus
HLA-A*24:03 [16] = assay: as above; conditions: source organism: Maporal virus
[17] = source organism: Influenza A virus (A/Viet Nam/HN/2004(H5N1))
[18] = source organism: Mycobacterium avium 104
[19] = source organism: Vibrio parahaemolyticus K5030
[20] = source organism: Cryptosporidium parvum Iowa II
[21] = source organism: Orthohantavirus andesense

## VHFRNQVKI
HLA-A*11:01; [17]
  pKd: ≤ 4.70
HLA-A*01:01; [17]
  pKd: ≤ 4.70
HLA-A*31:01; [17]
  pKd: ≤ 4.70
HLA-B*46:01 [1]; [17]
  pKd: ≤ 4.70
HLA-A*24:02
  pKd: ≤ 4.70
HLA-B*58:01; [17]
  pKd: ≤ 4.70
HLA-A*02:01 [2]; [17]
  pKd: ≤ 4.70
HLA-B*40:01; [17]
  pKd: ≤ 4.70
HLA-B*39:01; [17]
  pKd: 5.81
HLA-B*15:01 [3]; [17]
  pKd: ≤ 4.70
HLA-A*03:01 [4]; [17]
  pKd: ≤ 4.70
HLA-B*27:05; [17]
  pKd: ≤ 4.70
HLA-B*08:02
  pKd: ≤ 4.70
HLA-B*08:01
  pKd: ≤ 4.70
HLA-A*69:01; [17]
  pKd: ≤ 4.70
HLA-B*07:02; [17]
  pKd: ≤ 4.70

## GYDFEREGY
HLA-A*24:03 [5]; source organism: Influenza A virus (A/swine/Italy/1509-6/97(H1N1))
  pKd: 7.45

## VRDVVMPAL
HLA-A*11:01; [18]
  pKd: ≤ 4.70
HLA-A*01:01; [18]
  pKd: ≤ 4.70
HLA-A*31:01; [18]
  pKd: ≤ 4.70
HLA-B*44:02; [18]
  pKd: ≤ 4.70
HLA-B*46:01 [1]; [18]
  pKd: ≤ 4.70
HLA-B*58:01; [18]
  pKd: ≤ 4.70
HLA-B*48:01; [18]
  pKd: ≤ 4.70
HLA-A*02:01 [2]; [18]
  pKd: ≤ 4.70
HLA-B*18:01 [6]; [18]
  pKd: ≤ 4.70
HLA-B*40:01; [18]
  pKd: ≤ 4.70
HLA-B*39:01; [18]
  pKd: 7.17
HLA-B*15:01 [3]; [18]
  pKd: ≤ 4.70
HLA-A*03:01 [4]; [18]
  pKd: ≤ 4.70
HLA-B*27:05; [18]
  pKd: ≤ 4.70
HLA-B*57:01 [7]; [18]
  pKd: ≤ 4.70
HLA-A*69:01; [18]
  pKd: ≤ 4.70
HLA-A*29:02 [8]; [18]
  pKd: ≤ 4.70

## LQNFCQHLV
HLA-A*02:11; [19]
  pKd: 9.22
HLA-B*46:01 [9]; [19]
  pKd: ≤ 4.70
HLA-A*26:01; [19]
  pKd: ≤ 4.70
HLA-A*02:01 [10]; [19]
  pKd: 8.62
HLA-B*18:01 [11]
  pKd: ≤ 4.70
HLA-A*02:19; [19]
  pKd: 7.60
HLA-B*51:01; [19]
  pKd: ≤ 4.70
HLA-A*24:03 [5]; [19]
  pKd: ≤ 4.70
HLA-B*27:03; [19]
  pKd: ≤ 4.70
HLA-A*03:01 [12]; [19]
  pKd: ≤ 4.70
HLA-B*57:01 [13]; [19]
  pKd: ≤ 4.70
HLA-A*29:02 [14]
  pKd: 7.71

## SGLPGIFIV
HLA-A*02:03
  pKd: ≤ 4.70
HLA-A*02:11; [20]
  pKd: 5.26
HLA-B*46:01 [9]; [20]
  pKd: ≤ 4.70
HLA-A*26:01; [20]
  pKd: ≤ 4.70
HLA-A*02:01 [10]; [20]
  pKd: ≤ 4.70
HLA-A*02:19; [20]
  pKd: ≤ 4.70
HLA-B*15:01 [15]
  pKd: ≤ 4.70
HLA-B*15:17; [20]
  pKd: ≤ 4.70
HLA-B*27:03; [20]
  pKd: ≤ 4.70
HLA-A*03:01 [12]; [20]
  pKd: ≤ 4.70
HLA-B*57:01 [13]; [20]
  pKd: ≤ 4.70

## AYYKPYVQL
HLA-A*24:03 [5]; source organism: Bacillus cereus G9241
  pKd: 9.05

## TRDHVNLVL
HLA-A*02:12
  pKd: ≤ 4.70
HLA-A*01:01; [21]
  pKd: ≤ 4.70
HLA-A*31:01; [21]
  pKd: ≤ 4.70
HLA-B*44:02; [21]
  pKd: ≤ 4.70
HLA-B*46:01 [1]; [21]
  pKd: ≤ 4.70
HLA-B*58:01; [21]
  pKd: ≤ 4.70
HLA-A*68:02
  pKd: ≤ 4.70
HLA-B*48:01; [21]
  pKd: ≤ 4.70
HLA-A*02:01 [2]; [21]
  pKd: ≤ 4.70
HLA-B*18:01 [6]; [21]
  pKd: ≤ 4.70
HLA-B*39:01; [21]
  pKd: 7.34
HLA-A*24:03 [16]
  pKd: ≤ 4.70
HLA-B*15:01 [3]; [21]
  pKd: ≤ 4.70
HLA-A*03:01 [4]; [21]
  pKd: ≤ 4.70
HLA-B*27:05; [21]
  pKd: ≤ 4.70
HLA-B*57:01 [7]; [21]
  pKd: ≤ 4.70
HLA-A*69:01; [21]
  pKd: ≤ 4.70
HLA-B*07:02; [21]
  pKd: ≤ 4.70
HLA-A*29:02 [8]; [21]
  pKd: ≤ 4.70
HLA-A*26:01; [21]
  pKd: ≤ 4.70
HLA-B*51:01; [21]
  pKd: ≤ 4.70
HLA-B*15:17; [21]
  pKd: ≤ 4.70
HLA-B*27:03; [21]
  pKd: ≤ 4.70
